First the molecules themselves.
T1: human calcitonin receptor (human, UniProt P30988 25-474)
T1 construct: whole, on cells; Used as cell membranes; also called hCTR; hCT
T1 sequence (looked up): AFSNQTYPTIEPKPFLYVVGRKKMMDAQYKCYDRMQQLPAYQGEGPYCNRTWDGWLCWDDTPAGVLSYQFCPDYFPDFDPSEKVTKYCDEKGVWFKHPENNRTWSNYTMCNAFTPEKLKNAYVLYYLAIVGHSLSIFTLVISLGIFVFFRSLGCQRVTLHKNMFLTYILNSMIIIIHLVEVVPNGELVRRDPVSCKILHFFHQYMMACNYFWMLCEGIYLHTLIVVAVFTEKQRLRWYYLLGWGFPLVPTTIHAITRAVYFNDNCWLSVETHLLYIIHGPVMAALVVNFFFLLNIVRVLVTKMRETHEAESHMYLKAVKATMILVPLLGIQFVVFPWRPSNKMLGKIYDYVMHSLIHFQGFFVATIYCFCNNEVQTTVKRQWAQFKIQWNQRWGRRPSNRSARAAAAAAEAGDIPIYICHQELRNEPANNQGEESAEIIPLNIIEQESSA

B1: N^ε1-[2-[2-[2-[[(4S)-4-carboxy-4-(19-carboxynonadecanoylamino)butanoyl]amino]ethoxy]ethoxy]acetyl]-[His14,Arg17,Pro21,Pro27]-h-amylin (peptide)
peptide: K([AEEA-γGlu-C20 diacid])CNTATCATQRLAHFLRHSSPNFGAIPSSTNVGSNTY-NH2
modifications: disulfide 2-7; N-terminus assumed
SMILES: CC[C@H](C)[C@H](NC(=O)[C@H](C)NC(=O)CNC(=O)[C@H](Cc1ccccc1)NC(=O)[C@H](CC(N)=O)NC(=O)[C@@H]1CCCN1C(=O)[C@H](CO)NC(=O)[C@H](CO)NC(=O)[C@H](Cc1c[nH]cn1)NC(=O)[C@H](CCCNC(=N)N)NC(=O)[C@H](CC(C)C)NC(=O)[C@H](Cc1ccccc1)NC(=O)[C@H](Cc1c[nH]cn1)NC(=O)[C@H](C)NC(=O)[C@H](CC(C)C)NC(=O)[C@H](CCCNC(=N)N)NC(=O)[C@H](CCC(N)=O)NC(=O)[C@@H](NC(=O)[C@H](C)NC(=O)[C@@H]1CSSC[C@H](NC(=O)[C@@H](N)CCCCNC(=O)COCCOCCNC(=O)CC[C@H](NC(=O)CCCCCCCCCCCCCCCCCCC(=O)O)C(=O)O)C(=O)N[C@@H](CC(N)=O)C(=O)N[C@@H]([C@@H](C)O)C(=O)N[C@@H](C)C(=O)N[C@@H]([C@@H](C)O)C(=O)N1)[C@@H](C)O)C(=O)N1CCC[C@H]1C(=O)N[C@@H](CO)C(=O)N[C@@H](CO)C(=O)N[C@H](C(=O)N[C@@H](CC(N)=O)C(=O)N[C@H](C(=O)NCC(=O)N[C@@H](CO)C(=O)N[C@@H](CC(N)=O)C(=O)N[C@H](C(=O)N[C@@H](Cc1ccc(O)cc1)C(N)=O)[C@@H](C)O)C(C)C)[C@@H](C)O
notes: also called compound 69
B2: N^ε1-[2-[2-[2-[[(4S)-4-carboxy-4-(19-carboxynonadecanoylamino)butanoyl]amino]ethoxy]ethoxy]acetyl]-[Ser14,Arg17,Pro21,Pro27,Pro31]-h-amylin (peptide)
peptide: K([AEEA-γGlu-C20 diacid])CNTATCATQRLASFLRHSSPNFGAIPSSTPVGSNTY-NH2
modifications: disulfide 2-7; N-terminus assumed
SMILES: CC[C@H](C)[C@H](NC(=O)[C@H](C)NC(=O)CNC(=O)[C@H](Cc1ccccc1)NC(=O)[C@H](CC(N)=O)NC(=O)[C@@H]1CCCN1C(=O)[C@H](CO)NC(=O)[C@H](CO)NC(=O)[C@H](Cc1c[nH]cn1)NC(=O)[C@H](CCCNC(=N)N)NC(=O)[C@H](CC(C)C)NC(=O)[C@H](Cc1ccccc1)NC(=O)[C@H](CO)NC(=O)[C@H](C)NC(=O)[C@H](CC(C)C)NC(=O)[C@H](CCCNC(=N)N)NC(=O)[C@H](CCC(N)=O)NC(=O)[C@@H](NC(=O)[C@H](C)NC(=O)[C@@H]1CSSC[C@H](NC(=O)[C@@H](N)CCCCNC(=O)COCCOCCNC(=O)CC[C@H](NC(=O)CCCCCCCCCCCCCCCCCCC(=O)O)C(=O)O)C(=O)N[C@@H](CC(N)=O)C(=O)N[C@@H]([C@@H](C)O)C(=O)N[C@@H](C)C(=O)N[C@@H]([C@@H](C)O)C(=O)N1)[C@@H](C)O)C(=O)N1CCC[C@H]1C(=O)N[C@@H](CO)C(=O)N[C@@H](CO)C(=O)N[C@H](C(=O)N1CCC[C@H]1C(=O)N[C@H](C(=O)NCC(=O)N[C@@H](CO)C(=O)N[C@@H](CC(N)=O)C(=O)N[C@H](C(=O)N[C@@H](Cc1ccc(O)cc1)C(N)=O)[C@@H](C)O)C(C)C)[C@@H](C)O
notes: also called compound 73
B3: N^ε1-[(4S)-4-carboxy-4-(19-carboxynonadecanoylamino)butanoyl]-[Ala14,Arg17,Pro21,Pro27,His34]-h-amylin (peptide)
peptide: K([γGlu-C20 diacid])CNTATCATQRLAAFLRHSSPNFGAIPSSTNVGHNTY-NH2
modifications: disulfide 2-7; N-terminus assumed
SMILES: CC[C@H](C)[C@H](NC(=O)[C@H](C)NC(=O)CNC(=O)[C@H](Cc1ccccc1)NC(=O)[C@H](CC(N)=O)NC(=O)[C@@H]1CCCN1C(=O)[C@H](CO)NC(=O)[C@H](CO)NC(=O)[C@H](Cc1c[nH]cn1)NC(=O)[C@H](CCCNC(=N)N)NC(=O)[C@H](CC(C)C)NC(=O)[C@H](Cc1ccccc1)NC(=O)[C@H](C)NC(=O)[C@H](C)NC(=O)[C@H](CC(C)C)NC(=O)[C@H](CCCNC(=N)N)NC(=O)[C@H](CCC(N)=O)NC(=O)[C@@H](NC(=O)[C@H](C)NC(=O)[C@@H]1CSSC[C@H](NC(=O)[C@@H](N)CCCCNC(=O)CC[C@H](NC(=O)CCCCCCCCCCCCCCCCCCC(=O)O)C(=O)O)C(=O)N[C@@H](CC(N)=O)C(=O)N[C@@H]([C@@H](C)O)C(=O)N[C@@H](C)C(=O)N[C@@H]([C@@H](C)O)C(=O)N1)[C@@H](C)O)C(=O)N1CCC[C@H]1C(=O)N[C@@H](CO)C(=O)N[C@@H](CO)C(=O)N[C@H](C(=O)N[C@@H](CC(N)=O)C(=O)N[C@H](C(=O)NCC(=O)N[C@@H](Cc1c[nH]cn1)C(=O)N[C@@H](CC(N)=O)C(=O)N[C@H](C(=O)N[C@@H](Cc1ccc(O)cc1)C(N)=O)[C@@H](C)O)C(C)C)[C@@H](C)O
notes: also called compound 93
B4: N^ε1-[2-[2-[2-[[(4S)-4-carboxy-4-(19-carboxynonadecanoylamino)butanoyl]amino]ethoxy]ethoxy]acetyl]-[Thr14,Arg17,Pro21,Pro27,Pro31]-h-amylin (peptide)
peptide: K([AEEA-γGlu-C20 diacid])CNTATCATQRLATFLRHSSPNFGAIPSSTPVGSNTY-NH2
modifications: disulfide 2-7; N-terminus assumed
SMILES: CC[C@H](C)[C@H](NC(=O)[C@H](C)NC(=O)CNC(=O)[C@H](Cc1ccccc1)NC(=O)[C@H](CC(N)=O)NC(=O)[C@@H]1CCCN1C(=O)[C@H](CO)NC(=O)[C@H](CO)NC(=O)[C@H](Cc1c[nH]cn1)NC(=O)[C@H](CCCNC(=N)N)NC(=O)[C@H](CC(C)C)NC(=O)[C@H](Cc1ccccc1)NC(=O)[C@@H](NC(=O)[C@H](C)NC(=O)[C@H](CC(C)C)NC(=O)[C@H](CCCNC(=N)N)NC(=O)[C@H](CCC(N)=O)NC(=O)[C@@H](NC(=O)[C@H](C)NC(=O)[C@@H]1CSSC[C@H](NC(=O)[C@@H](N)CCCCNC(=O)COCCOCCNC(=O)CC[C@H](NC(=O)CCCCCCCCCCCCCCCCCCC(=O)O)C(=O)O)C(=O)N[C@@H](CC(N)=O)C(=O)N[C@@H]([C@@H](C)O)C(=O)N[C@@H](C)C(=O)N[C@@H]([C@@H](C)O)C(=O)N1)[C@@H](C)O)[C@@H](C)O)C(=O)N1CCC[C@H]1C(=O)N[C@@H](CO)C(=O)N[C@@H](CO)C(=O)N[C@H](C(=O)N1CCC[C@H]1C(=O)N[C@H](C(=O)NCC(=O)N[C@@H](CO)C(=O)N[C@@H](CC(N)=O)C(=O)N[C@H](C(=O)N[C@@H](Cc1ccc(O)cc1)C(N)=O)[C@@H](C)O)C(C)C)[C@@H](C)O
notes: also called compound 75
B5: N^ε1-[2-[2-[2-[[(4S)-4-carboxy-4-(19-carboxynonadecanoylamino)butanoyl]amino]ethoxy]ethoxy]acetyl]-[Lys14,Arg17,Pro21,Pro27,Pro31]-h-amylin (peptide)
peptide: K([AEEA-γGlu-C20 diacid])CNTATCATQRLAKFLRHSSPNFGAIPSSTPVGSNTY-NH2
modifications: disulfide 2-7; N-terminus assumed
SMILES: CC[C@H](C)[C@H](NC(=O)[C@H](C)NC(=O)CNC(=O)[C@H](Cc1ccccc1)NC(=O)[C@H](CC(N)=O)NC(=O)[C@@H]1CCCN1C(=O)[C@H](CO)NC(=O)[C@H](CO)NC(=O)[C@H](Cc1c[nH]cn1)NC(=O)[C@H](CCCNC(=N)N)NC(=O)[C@H](CC(C)C)NC(=O)[C@H](Cc1ccccc1)NC(=O)[C@H](CCCCN)NC(=O)[C@H](C)NC(=O)[C@H](CC(C)C)NC(=O)[C@H](CCCNC(=N)N)NC(=O)[C@H](CCC(N)=O)NC(=O)[C@@H](NC(=O)[C@H](C)NC(=O)[C@@H]1CSSC[C@H](NC(=O)[C@@H](N)CCCCNC(=O)COCCOCCNC(=O)CC[C@H](NC(=O)CCCCCCCCCCCCCCCCCCC(=O)O)C(=O)O)C(=O)N[C@@H](CC(N)=O)C(=O)N[C@@H]([C@@H](C)O)C(=O)N[C@@H](C)C(=O)N[C@@H]([C@@H](C)O)C(=O)N1)[C@@H](C)O)C(=O)N1CCC[C@H]1C(=O)N[C@@H](CO)C(=O)N[C@@H](CO)C(=O)N[C@H](C(=O)N1CCC[C@H]1C(=O)N[C@H](C(=O)NCC(=O)N[C@@H](CO)C(=O)N[C@@H](CC(N)=O)C(=O)N[C@H](C(=O)N[C@@H](Cc1ccc(O)cc1)C(N)=O)[C@@H](C)O)C(C)C)[C@@H](C)O
notes: also called compound 74
B6: N^ε1-[(4S)-4-carboxy-4-(19-carboxynonadecanoylamino)butanoyl]-[Ala14,Arg17,Pro21,Pro27,Pro34]-h-amylin (peptide)
peptide: K([γGlu-C20 diacid])CNTATCATQRLAAFLRHSSPNFGAIPSSTNVGPNTY-NH2
modifications: disulfide 2-7; N-terminus assumed
SMILES: CC[C@H](C)[C@H](NC(=O)[C@H](C)NC(=O)CNC(=O)[C@H](Cc1ccccc1)NC(=O)[C@H](CC(N)=O)NC(=O)[C@@H]1CCCN1C(=O)[C@H](CO)NC(=O)[C@H](CO)NC(=O)[C@H](Cc1c[nH]cn1)NC(=O)[C@H](CCCNC(=N)N)NC(=O)[C@H](CC(C)C)NC(=O)[C@H](Cc1ccccc1)NC(=O)[C@H](C)NC(=O)[C@H](C)NC(=O)[C@H](CC(C)C)NC(=O)[C@H](CCCNC(=N)N)NC(=O)[C@H](CCC(N)=O)NC(=O)[C@@H](NC(=O)[C@H](C)NC(=O)[C@@H]1CSSC[C@H](NC(=O)[C@@H](N)CCCCNC(=O)CC[C@H](NC(=O)CCCCCCCCCCCCCCCCCCC(=O)O)C(=O)O)C(=O)N[C@@H](CC(N)=O)C(=O)N[C@@H]([C@@H](C)O)C(=O)N[C@@H](C)C(=O)N[C@@H]([C@@H](C)O)C(=O)N1)[C@@H](C)O)C(=O)N1CCC[C@H]1C(=O)N[C@@H](CO)C(=O)N[C@@H](CO)C(=O)N[C@H](C(=O)N[C@@H](CC(N)=O)C(=O)N[C@H](C(=O)NCC(=O)N1CCC[C@H]1C(=O)N[C@@H](CC(N)=O)C(=O)N[C@H](C(=O)N[C@@H](Cc1ccc(O)cc1)C(N)=O)[C@@H](C)O)C(C)C)[C@@H](C)O
notes: also called compound 94

Numbered stars: 1 amine (or outer) side, 2 acyl side, 3 side chain; on linkers, the order of the positions; unused ones are H or OH. Bridge positions count the residues as written; N and C are the ends. Side chains are listed from the residue outwards. Ends that are not written are not given here. * marks the point of attachment. C20 diacid = O=C(O)CCCCCCCCCCCCCCCCCCC(=O)*; γGlu = O=C(O)[C@H](CCC(=O)[*:2])N[*:1]; AEEA = NCCOCCOCC(=O)O

One assay has as its target T1, human calcitonin receptor. Kind of assay: ratio of hCTR IC50 to hAmylin-R IC50 (reference: human amylin receptor). The method, boiled down: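 Scintillation proximity competition binding on cell membranes at 35 ng/μL with SPA beads, in 50 mM Hepes pH 7.4, 1 mM CaCl2, 5 mM MgCl₂, 0.1% OA, 0.02% Tween20. Incubated 120 min at 25° C with shaking. IC₅₀ from one-site competition fit.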
In the case of B1, the “Ratio hCT/hAmylin binding” value was 65.3.

Take B2: the “Ratio hCT/hAmylin binding” value is 51.7.

B3: the “Ratio hCT/hAmylin binding” value was found to be 101.

With B4, the “Ratio hCT/hAmylin binding” value was 91.4.

Regarding B5, the “Ratio hCT/hAmylin binding” value was determined as 101.

With B6, the “Ratio hCT/hAmylin binding” value amounted to 46.3.

The target in another assay is T1, human calcitonin receptor. Nature of the assay: SPA competition on BHK cell membranes, 125I-calcitonin as radioligand (Assay VII). The method, boiled down: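 BHK hCTR membranes 35 ng/μL + SPA beads 0.05 mg/well; buffer 50 mM Hepes pH 7.4, 1 mM CaCl2, 5 mM MgCl₂, 0.1% OA, 0.02% Tween20. 120 min, 25° C., shaking. Scintillation count; IC50 by one-site binding competition.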
Take B1: the IC50 (commonly the concentration at which inhibition is half-maximal) was found to be 8.68 nM.

As for B2, the IC50 is 5.38 nM.

For the molecule B3, the IC50 was 17.8 nM.

As for B4, the IC50 came to 60.9 nM.

With B5, the IC50 worked out at 79.9 nM.

Take B6: the IC50 turned out to be 6.86 nM.

For the origin of these results see patent publication US20140087995A1 (published 2014).
